Data from PMC11671767, “GENOMES UNCOUPLED PROTEIN1 binds to plastid RNAs and promotes their maturation”.

Assays:
GUN1-PS [1] = target: T1, GUN1-PS (Arabidopsis thaliana, UniProt Q9SIC9 232-918); experiment: competition; vs Cy5-ndhG, 5-50x; 5x buffer (4 ul per reaction): 50 mM Tris-HCl pH 7.5, 50 mM NaCl, 200 mM KCl, 5 mM MgCl2, 5 mM EDTA, 5 mM DTT, 0.25 mg/ml BSA, 5% glycerol; 30 min at 23 C; 5% native PAGE, 0.5x TBE, 4 C; conditions: protein: recombinant; tags: N-terminal TRX-His; hairpin loop (predicted)
T1 sequence: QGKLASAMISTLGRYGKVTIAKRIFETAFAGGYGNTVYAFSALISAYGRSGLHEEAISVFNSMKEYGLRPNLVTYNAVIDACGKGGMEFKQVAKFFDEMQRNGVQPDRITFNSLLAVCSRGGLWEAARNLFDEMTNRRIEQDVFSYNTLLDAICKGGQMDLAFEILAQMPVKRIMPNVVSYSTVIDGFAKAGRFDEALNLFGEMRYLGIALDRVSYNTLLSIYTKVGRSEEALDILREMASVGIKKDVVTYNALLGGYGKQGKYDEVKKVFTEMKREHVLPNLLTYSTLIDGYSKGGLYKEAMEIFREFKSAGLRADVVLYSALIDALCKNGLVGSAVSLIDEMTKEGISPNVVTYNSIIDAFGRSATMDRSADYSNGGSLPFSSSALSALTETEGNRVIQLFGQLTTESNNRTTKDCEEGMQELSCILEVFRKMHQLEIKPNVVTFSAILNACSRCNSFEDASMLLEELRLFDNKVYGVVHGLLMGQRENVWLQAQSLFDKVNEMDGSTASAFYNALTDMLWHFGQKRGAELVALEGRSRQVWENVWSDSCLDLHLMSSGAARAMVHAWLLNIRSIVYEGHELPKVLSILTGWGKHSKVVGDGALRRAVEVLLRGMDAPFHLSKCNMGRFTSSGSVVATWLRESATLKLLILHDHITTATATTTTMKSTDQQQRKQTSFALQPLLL

GUN1-PS [2] = target: T1, GUN1-PS; experiment: competition; vs Cy5-23S_104856, 5-50x; reduces the weak shift; 5x buffer (4 ul per reaction): 50 mM Tris-HCl pH 7.5, 50 mM NaCl, 200 mM KCl, 5 mM MgCl2, 5 mM EDTA, 5 mM DTT, 0.25 mg/ml BSA, 5% glycerol; 30 min at 23 C; 5% native PAGE, 0.5x TBE, 4 C; conditions: protein: recombinant; tags: N-terminal TRX-His
GUN1-PS [3] = target: T1, GUN1-PS; experiment: competition; vs Cy5-trnG.1, 5-50x; 5x buffer (4 ul per reaction): 50 mM Tris-HCl pH 7.5, 50 mM NaCl, 200 mM KCl, 5 mM MgCl2, 5 mM EDTA, 5 mM DTT, 0.25 mg/ml BSA, 5% glycerol; 30 min at 23 C; 5% native PAGE, 0.5x TBE, 4 C; conditions: protein: recombinant; tags: N-terminal TRX-His
GUN1-PS [4] = target: T1, GUN1-PS; experiment: EMSA; 100-600 nM protein; 5x buffer (4 ul per reaction): 50 mM Tris-HCl pH 7.5, 50 mM NaCl, 200 mM KCl, 5 mM MgCl2, 5 mM EDTA, 5 mM DTT, 0.25 mg/ml BSA, 5% glycerol; 30 min at 23 C; 5% native PAGE, 0.5x TBE, 4 C; conditions: protein: recombinant, tags: N-terminal TRX-His
GUN1-PS [5] = target: T1, GUN1-PS; experiment: EMSA; binding at 37 C, gel at room temperature; similar to RNA1; 5x buffer (4 ul per reaction): 50 mM Tris-HCl pH 7.5, 50 mM NaCl, 200 mM KCl, 5 mM MgCl2, 5 mM EDTA, 5 mM DTT, 0.25 mg/ml BSA, 5% glycerol; 30 min at 23 C; 5% native PAGE, 0.5x TBE, 4 C; conditions: protein: recombinant; tags: N-terminal TRX-His
GUN1-PS [6] = target: T1, GUN1-PS; experiment: EMSA; binding at 37 C, gel at room temperature; no clear shift; 5x buffer (4 ul per reaction): 50 mM Tris-HCl pH 7.5, 50 mM NaCl, 200 mM KCl, 5 mM MgCl2, 5 mM EDTA, 5 mM DTT, 0.25 mg/ml BSA, 5% glycerol; 30 min at 23 C; 5% native PAGE, 0.5x TBE, 4 C; conditions: protein: recombinant; tags: N-terminal TRX-His

Binder: AGAAAAAAAUCUGUUGAUAAAUGAA (ssRNA) [ndhG_118454 unlabeled]
- binding result (GUN1-PS [1]): binds

Binder: AUUCUUAUGUGGCAGUCUCUAGUCCACUAGCUUUUG (ssRNA) [nonspecific competitor for 23S and ndhG]
- binding result (GUN1-PS [2]): binds

Binder: AUUUGGGAAUUUCUCCAUCCAUCAU (ssRNA) [trnG.1 unlabeled]
- binding result (GUN1-PS [3]): binds

Binder: AGAAAAAAAUCUGUUGAUAAAUGAA (ssRNA) [ndhG_118454]
- binding result (GUN1-PS [4]; hairpin loop (predicted)): binds

Binder: GGACCGAAUGAUCUAUCUCU (ssRNA) [Kim_RNA3 (BLRP mut)]
- binding result (GUN1-PS [5]): no binding

Binder: AUUUGGGAAUUUCUCCAUCCAUCAU (ssRNA) [trnG.1]
- binding result (GUN1-PS [4]): binds

Binder: GGAAAUCCGUCGAUAUCUCU (ssRNA) [Kim_RNA1 (BLRP)]
- binding result (GUN1-PS [6]): no binding

Binder: GCAUCUGAAUUUCAUAACCAAUCUCGAU (ssRNA) [nonspecific competitor for trnG.1]
- binding result (GUN1-PS [3]): no binding
